Common to all, as to assay: split reporter
The target in test [1] is Tim23 mutant M2 fused to short YFP (S. cerevisiae) (UniProt P32897).
Test [2] addresses Tim23 mutant M1 fused to short YFP (S. cerevisiae) (UniProt P32897).
Test [3] deals with Tim23 mutant M4 fused to short YFP (S. cerevisiae) (UniProt P32897).

B1: Sfc1 fused to long YFP (natural protein)
chain: MSQKKKASHPAINLMAGGTAGLFEALCCHPLDTIKVRMQIYRRVAGIEHVKPPGFIKTGRTIYQKEGFLALYKGLGAVVIGIIPKMAIRFSSYEFYRTLLVNKESGIVSTGNTFVAGVGAGITEAVLVVNPMEVVKIRLQAQHLTPSEPNAGPKYNNAIHAAYTIVKEEGVSALYRGVSLTAARQATNQGANFTVYSKLKEFLQNYHQMDVLPSWETSCIGLISGAIGPFSNAPLDTIKTRLQKDKSISLEKQSGMKKIITIGAQLLKEEGFRALYKGITPRVMRVAPGQAVTFTVYEYVREHLENLGIFKKNDTPKPKPLK
In the case of B1, the results for the percent of fluorescent cells in test [1], in test [2] and in test [3] were 7%, 4% and 9%, respectively.

Values taken from publication doi:10.64898/2025.12.08.692925.
